# From US20210261685A1 (Alector, published 2021)
# Changes are numbered by the printed parent chain.
# B1: MTK-19 (antibody, human IgG1, V domains shown)
# VH: EVQLQQSGPELVKPGASVKISCKTSGYTFTEYTMHWVKQSHGKSLEWLGGFNPNNVITSYNQRFQGRATLTVDKSSSTAYMELRSLTSDDSAVYYCTRGDLLWSLLLPGNYFDYWGQGTTLTVSS
# VL: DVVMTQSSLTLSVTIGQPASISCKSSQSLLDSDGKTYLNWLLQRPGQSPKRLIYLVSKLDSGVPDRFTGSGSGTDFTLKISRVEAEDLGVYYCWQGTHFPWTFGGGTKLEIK
# B2: MTK-11 (antibody, human IgG1, V domains shown)
# VH: QVQLKQSGPGLVQPSQSLSITCTVSGFSLTDYGVHWVRQSPGKGLEWLGVIWSSGTTDYNEAFISRLSISKDNSKSHVFFKMNSLQAIDTAIYYCARKGHDPYAMDYWGQGTSVTVSS
# VL: QIVLTQSPAIMSASLGERVTMTCTASSSISSSYFHWYQQKPGSSPKLWIYSTSNLPSGVPARFSGSGSGTSYSLTISSMEAEDAATYYCHQYYRSPLTFGAGTKLELK
# B3: MTK-03 (antibody, human IgG1, V domains shown)
# VH: DVQLQESGPGLVKPSQSLSLTCSVTGYSITSGYYWNWIRQFPGNTLEWMGYMSFDGDNKFNPSLKNRISITRDTSKNQFFLRLNSVTTEDTATYYCARGGYNYGSTEANWGQGTLVTVSA
# VL: QIVLTQSPAIMSAFPGEKVTITCSASSSVNYMHWFQQKPGTSPKLWIYSTSNLASGVPARFSGSGSGTSYSLTISRMEAEDAATYYCQQRSSYPFTFGSGTKLEIK
# B4: MTK-07 (antibody, human IgG1, V domains shown)
# VH: B3 VH with A120T
# VL: B3 VL with N30T, Y48F
# B5: MTK-05 (antibody, human IgG1, V domains shown)
# VH: QVQLQQSGAELVQPGTSVRLSCKTSGYTFTSYWIQWVKQRPGQGLGWIGEIFPGTGTTYYNEKFKGKATLTIDTSSSTAYMQLSSLTSEDSAVYFCARDGAYFDVWGAGTTVTVSS
# VL: DIQMTQSPASLSASVGETVTFTCRASENIFSYLAWYQQKQGKSPQLLVYNAKTLAEGVPSRFSGSGSGTHFSLKINSLQPEDFGSYYCLHHYGTPLTFGAGTKLELK
# B6: MTK-20 (antibody, human IgG1, V domains shown)
# VH: QIQLVQSGPELKKPGETVKISCKASGYTFTNYGMTWVKQAPGKGLKWMGWINTYTGEPTYADDFKGRFALSLETSASTAYLQINNLKNEDTATYFCARGGGRLGLRPLDYWGQGTTLTVSS
# VL: DIQMTQTTSSLSASLGDRVTISCRASQDINNYLNWYQQKPDGTVKLLIYYTSRLHSGVPSRFSGSGSGTDYSLTISNLEQEDIATYFCQQGNTLPWTFGGGTKLEIK
# B7: MTK-18 (antibody, human IgG1, V domains shown)
# VH: B6 VH with N31H, L70F, R102Q
# VL: B6 VL with I21F, D28A, N30S
# B8: MTK-21 (antibody, human IgG1, V domains shown)
# VH: B6 VH with Y32F, K38R, K43M, G44D, T59K, N84T, L86F
# VL: B6 VL with R53S, S76T, K103R
# B9: MTK-01 (antibody, human IgG1, V domains shown)
# VH: QIQLVQSGPELKKPGETVKISCKASGYTFTNYGMNWVKQAPGKGLKCMGWINTYTGEPTYADDFKGRFAFSLETSATTAYLQINNLKNEDTATYFCARRDRYTWFAYWGQGTLVTVSA
# VL: QIVLSQSPAILSASPGEKVTMTCRASSSVSYMHWYQQKPGSSPKPWIYATSNLASGVPARFSGSGSGTSYSLTISRVEAEDAATYYCQQWSSNPPTFGGGTKLEIK
# B10: MTK-04 (antibody, human IgG1, V domains shown)
# VH: B9 VH with T77S, T91M, R98K, R99Y, R101N, T103A
# VL: B9 VL with I10F, Q36L, A59V, P95R, K106R
# B11: MTK-17 (antibody, human IgG1, V domains shown)
# VH: QIQLVQSGPELKKPGETVKISCKASGYTFTNFGMNWVKQAPGKGLKWMGWINTYTGEPTYADDFKGRFAFSLETSASTAYLQINNLKNEDTATYFCSRGAVLRAGAMDCWGQGTSVTVSS
# VL: DIQMTQSSSYLSVSLGGRVTITCKASDHINNWLAWYQQKPGNAPRLLISGATSLETGVPSRFSGSGSGKDYTLSITSLQTEDVATYYCQQYWSTPRTFGGGTKLEIK
# B12: MTK-33 (antibody, human IgG1, V domains shown)
# VH: QVQLQQPGPELVRPGTSVKLSCKASGYTFTSYWMHWIKQRPGQGLEWIGVIDPSDNYINYNQKFKGKATLTVDTSSSTAYLQLSSLTSEDSAVYYCAREAGTRGYFDYWGQGTTLTVSS
# VL: SIVMTQTPKFLLVSAGDRVIITCKASQSVSNTVAWYQQKPGQSPKLLIYYASNRYTGVPDRFTGSGYGTDFTFTISTVQAEDLAVYFCQQDYRSPFTFGSGTQLEMK
# B13: MTK-31 (antibody, human IgG1, V domains shown)
# VH: QIQLVQSGPELKKSGETVKISCKASGYTFTSYGMSWVKQAPGKGLKWMGWINTYSGVPTYADDFKGRFAFSLETSASTAYLQINNLKNEDTATYFCASLSYDGSLYHAMDYWGQGTSVTVSS
# VL: DVSMTQTPLSLPVSLGDQASISSRSSQTIVHSNGNTYLEWYLQKPGQSPKLLIYKVSNRFSGVPDRFSGSGSGTDFTLKISRVEAEDLGVYYCFQGSHVPWTFGGGTKLEIK
# B14: MTK-29 (antibody, human IgG1, V domains shown)
# VH: QIQLVQSGPELKKPGETVKISCKSSGFTFTTYGMSWVKQAPGKGLKWMGWINTYSGVPTYTDDFKGRFAFSLETSASTASLQINNLKNEDTATYFCARYTNYGYFDYWGQGTTLTVSS
# VL: B9 VL with S26T, S30G, D81H, S91G, P95F, G99S
# Biological target: T1, cyno MerTK extracellular domain (ECD), recombinant (cynomolgus monkey, UniProt Q12866 21-505 (human entry))
# T1 construct: also called cynomolgus MerTK; not shown: polyHis tag or TEVS/Thrombin/murine IgG2a Fc tag
# T1 chain: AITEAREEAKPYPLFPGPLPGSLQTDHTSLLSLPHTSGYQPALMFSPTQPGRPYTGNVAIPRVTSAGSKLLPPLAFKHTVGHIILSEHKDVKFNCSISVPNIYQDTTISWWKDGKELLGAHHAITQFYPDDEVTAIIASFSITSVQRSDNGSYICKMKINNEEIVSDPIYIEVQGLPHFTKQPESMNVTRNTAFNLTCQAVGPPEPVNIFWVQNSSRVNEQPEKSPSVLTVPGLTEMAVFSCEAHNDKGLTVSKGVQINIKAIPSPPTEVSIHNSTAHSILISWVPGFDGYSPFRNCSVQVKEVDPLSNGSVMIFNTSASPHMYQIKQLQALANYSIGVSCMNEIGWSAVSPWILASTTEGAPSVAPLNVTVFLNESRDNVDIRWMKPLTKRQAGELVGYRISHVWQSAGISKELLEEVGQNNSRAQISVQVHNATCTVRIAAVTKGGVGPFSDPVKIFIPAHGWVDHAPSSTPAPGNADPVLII
# Assay: SPR, Carterra LSA, antibody immobilised
# Description: Binding kinetics of human anti-MerTK IgG1 LALAPS antibodies of the present disclosure to human, cyno, and murine MerTK were evaluated using a Carterra LSA instrument (Carterra, Salt Lake City, Utah). Briefly, anti-MerTK antibodies were prepared by diluting to 10 μg/ml in 10 mM Acetate, pH 4.25 (Carterra), at 300 μl/well. A HC200M sensor chip (Carterra) was activated using the single channel flow cell with a 7-minute injection of a 1:1:1 mixture of 100 mM MES pH 5.5, 100 mM sulfo-NHS, 400 mM EDC (all reconstituted in MES pH 5.5; 100 μl of each mixed in vial immediately before running assay). After switching to the multi-channel array flow cell, the antibodies were injected over the activated chip in a 96-spot array for 15 minutes. The remaining unconjugated active groups on the chip were then blocked by injecting 1M Ethanolamine pH 8.5 (Carterra) for 7 minutes using the single channel flow cell.
# After priming with running buffer (HBS-TE, Carterra) with 0.5 mg/ml BSA (Sigma), the immobilized anti-MerTK antibodies were tested for their ability to bind to several forms of recombinant MerTK extracellular domain, including human, cynomolgus, and mouse orthologs as described above. Estimates of affinity were generated by injecting each analyte over the entire antibody array using the single channel flow cell. MerTK analytes were diluted to 33.3, 100, and 300 nM in running buffer, and injected in serial from lowest to highest concentration without regeneration. Two buffer blanks were run between each series (one species per series). Data were processed and analyzed using NextGenKIT high-throughput kinetics analysis software (Carterra).
# The equilibrium dissociation constants (KD) were then calculated from the fitted association and dissociation rate constants (k-on and k-off) for anti-MerTK antibodies of the present disclosure. Binding kinetic analysis was also performed on anti-MerTK antibodies H1 (BioLegend, Clone ID: 590H11G1E3), H2 (R&D systems, Clone ID: 125518), M6 (WO2016/106221), and CDX AB2000-A7 hIgG1 (WO2019/084307).
Binder,Kd [nM],binding result
B1,12,
B2,2.9,
B3,55,
B4,53,
B5,,no binding (tested: 300 nM)
B6,9.2,
B7,18,
B8,43,
B9,99,
B10,44,
B11,24,
B12,6.6,
B13,91,

# Biological target: T2, human MerTK endogenously expressed on cells (SK-MEL-5 cells; human macrophages) (human, UniProt Q12866 21-999)
# T2 construct: also called MerTK on SK-MEL-5
# T2 sequence: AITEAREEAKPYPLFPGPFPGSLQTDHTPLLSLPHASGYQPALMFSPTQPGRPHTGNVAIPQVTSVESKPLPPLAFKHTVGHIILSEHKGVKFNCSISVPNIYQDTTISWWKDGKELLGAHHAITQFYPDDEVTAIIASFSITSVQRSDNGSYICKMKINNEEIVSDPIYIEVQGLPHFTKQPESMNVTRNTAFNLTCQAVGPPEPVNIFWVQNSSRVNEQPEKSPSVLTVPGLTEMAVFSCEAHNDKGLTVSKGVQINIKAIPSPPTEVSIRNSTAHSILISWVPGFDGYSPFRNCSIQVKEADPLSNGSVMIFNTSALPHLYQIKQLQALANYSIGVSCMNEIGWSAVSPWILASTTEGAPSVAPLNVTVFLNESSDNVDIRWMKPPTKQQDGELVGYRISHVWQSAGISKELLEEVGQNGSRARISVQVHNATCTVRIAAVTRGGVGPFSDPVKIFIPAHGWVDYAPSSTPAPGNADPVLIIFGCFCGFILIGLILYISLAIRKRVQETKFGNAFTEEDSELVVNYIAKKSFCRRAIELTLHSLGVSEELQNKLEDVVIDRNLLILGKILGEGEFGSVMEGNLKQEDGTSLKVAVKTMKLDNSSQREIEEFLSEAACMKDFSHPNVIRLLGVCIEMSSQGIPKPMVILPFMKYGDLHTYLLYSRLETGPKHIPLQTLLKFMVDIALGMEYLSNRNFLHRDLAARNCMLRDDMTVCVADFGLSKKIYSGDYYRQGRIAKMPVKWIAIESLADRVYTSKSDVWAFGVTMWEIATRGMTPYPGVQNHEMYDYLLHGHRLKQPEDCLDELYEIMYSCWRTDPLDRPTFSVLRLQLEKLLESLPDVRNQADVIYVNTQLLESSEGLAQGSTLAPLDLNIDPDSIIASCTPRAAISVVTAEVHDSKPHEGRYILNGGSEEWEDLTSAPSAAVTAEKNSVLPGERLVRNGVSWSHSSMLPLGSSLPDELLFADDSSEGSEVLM
# Assay: flow cytometry on SK-MEL-5 cells, Prism fit
# Description: To determine whether recombinant anti-human MerTK antibodies of the present disclosure bind to human MerTK endogenously expressed on SK-MEL-5 cells and to CHO cells overexpressing mouse MerTK (CHO-muMerTK OE cells), the following experiments were performed. SK-MEL-5 cells and CHO-muMerTK OE cells were plated at 40,000 cells/well. Anti-MerTK antibodies were titrated to a final concentration range of between 66.6 nM to 4 pM and then added to the cells. After 30 min on ice, cells were washed and then stained with APC-conjugated mouse anti-human Kappa antibody (Southern Biotech Cat #9230-11, Birmingham, Ala.) and a viability die (Life Technologies) in the presence of Fc block solution on ice for 30 minutes, and then washed twice with cold FACS buffer (2% FBS in PBS). Cells were fixed with 4% paraformaldehyde in PBS. Stained cells were acquired on a BD FACS Canto II cytometer and the mean fluorescence intensity (MFI) was calculated with FlowJo software and K value was calculated with Prism software. […] A lower Kd value reflects higher binding of antibody to cells.
row,Binder,Kd [nM]
1,B1,3.07
2,B2,3.54
3,B3,2.64
4,B4,3.21
5,B6,0.11
6,B7,0.38
7,B8,23.4
8,B9,0.049
9,B14,0.14
10,B10,0.037
11,B11,12.7
12,B12,0.93
